Laboratory results as given in patent US20220275043A1.

What was measured:
[1] = molecular target: single-chain SIINFEKL-H2Kb expressed on K562 cells (mouse); assay: flow cytometry, purified OT1-TCR-Igg at 20 nM on K562 cells expressing single-chain SIINFEKL-H2Kb
[2] = molecular target: single-chain SIINFEKL-H2Kb expressed on K562 cells (mouse); assay: flow cytometry dot plot (APC-A against Pacific Blue-A) of K562 cells expressing single-chain SIINFEKL-H2Kb, stained with raw supernatant; number printed in the gate 'TCR-Igg pos stain' (same gate in the Negative ctl panel: 1.15)

percent of cells stained at 20 nM [1]: 100%
TCR-Igg pos stain [2]: 39.3
Substance: OT1-TCR-Igg (OTI TCRα-LZL-mIgG HC + OTI TCRβ-LZR-mIgG LC, two separate plasmids)
